In US20070015260A1, “Synthesis of synthons for the manufacture of bioactive compounds” (DIVERSA CORPORATION, priority 2002, published 2007):
Numbering of substitutions follows the chain as printed. Names and notes keep the numbering of the source. “Also recorded” adds a separate entry of the source.

B1: S238D: DERA variant, phosphate binding pocket residue Ser238 replaced with Asp (protein, UniProt P0A6L0 1-259, looked up, variant S238D)
Deoxyribose-phosphate aldolase: MTDLKASSLRALKLMDLTTLNDDDTDEKVIALCHQAKTPVGNTAAICIYPRFIPIARKTLKEQGTPEIRIATVTNFPHGNDDIDIALAETRAAIAYGADEVDVVFPYRALMAGNEQVGFDLVKACKEACAAANVLLKVIIETGELKDEALIRKASEISIKAGADFIKTSTGKVAVNATPESARIMMEVIRDMGVEKTVGFKPAGGVRTAEDAQKYLAIADELFGADWADARHYRFGADSLLASLLKALGHGDGKSASSY
B2: K172E: DERA variant, basic phosphate binding pocket residue Lys172 mutated to Glu (protein, UniProt P0A6L0 1-259, looked up, variant K172E)
Deoxyribose-phosphate aldolase: B1 Deoxyribose-phosphate aldolase with K172E, D238S
B3: G205E: DERA variant, neutral phosphate binding pocket residue Gly205 replaced with Glu (protein, UniProt P0A6L0 1-259, looked up, variant G205E)
Deoxyribose-phosphate aldolase: B1 Deoxyribose-phosphate aldolase with G205E, D238S
B4: R207E: DERA variant, basic phosphate binding pocket residue Arg207 mutated to Glu (protein, UniProt P0A6L0 1-259, looked up, variant R207E)
Deoxyribose-phosphate aldolase: B1 Deoxyribose-phosphate aldolase with R207E, D238S

Key:
[1] = system: E. coli SELECT (Δace, adhC, DE3) cells; test: In vivo selection: growth of E. coli SELECT with supplementation substrates; format: cell-based; conditions: for toxicity of supplementation substrate to SELECT cells: together with sodium acetate
Source text: SELECT was transformed with the DERA expressing plasmid, pET30a WT DERA, and growth conditions were then optimized for the expression of soluble active DERA enzyme. Selection conditions were further optimized using DERA's natural substrate DRP as a supplementation substrate and FIG. 6 illustrates that viable selection conditions are achieved. In the absence of 2-carbon supplementation, neither SELECT cells transformed with a plasmid which expresses WT DERA nor those transformed with a nonexpressing plasmid (−) grow. By contrast, both grow in the presence of sodium acetate supplementation. […] Proof of principle for this selection system arises from the fact that only E. coli SELECT cells transformed with plasmid that expresses WT DERA grow when DRP is used as the supplementation substrate. Furthermore, that the endogenous genomic E. coli DERA is not expressed at a sufficiently high level to affect the use of DRP as a 2-carbon source by virtue of its metabolism to acetaldehyde and D-glyceraldehyde-3-phosphate was established. […] A novel activity-based selection system is thus established and can be used to select for a DERA variant which can catalyze the retro-aldol reaction of DR and other nonphosphorylated substrates. Work is in progress to identify novel DERA variants for this purpose.
Plasmids were transformed into electrocompetent SELECT cells and subjected to 1 h outgrowth at 37° C. in 1 mL SOC medium supplemented with 0.1% sodium acetate. The cells were then collected by centrifugation at 4° C., 3000 rpm for 10 min. The supernatant was discarded and the pellet gently resuspended M9 0.2% glucose. This was repeated twice. The cells were then diluted to OD600=0.001 in M9 0.2% glucose, 0.01 mM IPTG, 10 μg/mL kanamycin. The appropriation supplementation substrate (sodium acetate, D-2-deoxyribose-phosphate or D-2-deoxyribose) was then added at 0.1% w/w concentration. After an appropriate selection time at 37° C., typically 24-72 h, the cells were harvested by centrifugation and their amplified plasmids isolated.

[2] = DERA addition (aldol) assay; format: biochemical; conditions: spectrophotometric coupled-assay of substrate consumption and TLC of product formation
Description: DERA enzyme activity was assayed in the aldol synthesis direction by determining the concentration of acetaldehyde remaining by a coupled endpoint assay with yeast alcohol dehydrogenase (YADH, EC 1.1.1.1). 200 mM acetaldehyde, which had been freshly distilled under anerobic conditions, 200 mM (±)-glyceraldehyde and 0.2 mg/mL DERA in 50 mM triethanolamine, pH 7.5 buffer which had been deoxygenated with N2, were incubated under an N2 atmosphere at 22° C. At various time points, 50 μL aliquots were withdrawn and quenched into 15 μL of 60% perchloric acid. After a 5 min incubation on ice, 890 μL 1 M triethanolamine, pH 7.5 buffer and 45 μL 4 N NaOH were added to neutralize the solution. 20 μL of this solution was then assayed for remaining acetaldehyde. The amount of acetaldehyde remaining was equated to moles NADH consumed, as determined in triethanolamine pH 7.5 buffer containing 0.3 mM NADH, 20 μL the above quenched reaction aliquot and 0.05 mg/mL YADH. DR product formation was also confirmed by silica gel TLC with ethylacetate running solvent and p-anisaldehyde developing stain. Rf: glyceraldehyde=0.04 (stains brown) Rf:2-deoxyribose=0.1 (stains blue).

[3] = DERA cleavage (retroaldol) coupled assay, unnatural substrate DR; format: biochemical; conditions: for ratio of specificity constants {kcat/KM (DR)}/{kcat/KM (DRP)}: DR compared to DRP, read; for activity / specificity with DR, in words: compared to WT; for Km / kcat: retro-aldol, pH 7.5, 25° C.
Description: (§1) Enzyme activity was monitored by the standard coupled assay using α-Glycerophosphate Dehydrogenase (α-GPD, EC 1.1.18), and Triosephosphate Isomerase (TPI, EC 5.3.1.1). Enzyme activity was assayed in the retro-aldol, decomposition direction with 0.01-4 mM D-2-deoxyribose-5-phosphate (DRP) or 5 to 200 mM D-2-deoxyribose in 50 mM triethanolamine hydrochloride pH 7.5 buffer using a GPD/TPI (1.6 U/mL Sigma G-1881) coupled enzyme system at 25° C. in the presence of 0.3 mM NADH by observing the rate of decrease of NADH concentration as monitored at 340 nm, ε=6220 M^−cm^−1.

[4] = DERA cleavage (retroaldol) coupled assay, natural substrate DRP; format: biochemical; conditions: for Km / kcat: retro-aldol, pH 7.5, 25° C.; for activity / kcat/KM with the natural substrate DRP, in words: compared to WT
Description: as §1

[5] = Sequential asymmetric aldol reaction with azidoaldehyde acceptor; format: biochemical; conditions: 3-azidopropinaldehyde acceptor, two molecules of acetaldehyde as donor
[6] = DERA catalysis with 2-methyl-3-hydroxypropinaldehyde as acceptor; format: biochemical; conditions: L-2-methyl derivative as substrate

| Molecule | toxicity of supplementation substrate to SELECT cells [1] | relative activity of the DERA variants in the aldol direction [2] | ratio of specificity constants {kcat/KM (DR)}/{kcat/KM (DRP)} [3] | activity / specificity with DR, in words ([3]; substrate DR) | Km ([3]; substrate DR) | kcat ([3]; substrate DR) | Km [4] | kcat [4] | acceptance of the azidoaldehyde as substrate [5] | growth of SELECT cells transformed with expressing plasmid ([1]; DRP as the supplementation substrate) | improvement in kcat/KM compared to WT-DERA ([3]; substrate DR) | activity / kcat/KM with the natural substrate DRP, in words [4] | improvement in kcat/KM compared to that of the wild type [6] | decrease in kcat/KM ([3]; substrate DR) |
| --- | --- | --- | --- | --- | --- | --- | --- | --- | --- | --- | --- | --- | --- | --- |
| O=CC[C@@H](O)[C@H](O)CO [DR, D-2-deoxyribose] | neither of these supplementation substrates nor their metabolic products are toxic to the cells |  |  |  |  |  |  |  |  |  |  |  |  |  |
| O=CC[C@@H](O)[C@H](O)COP(=O)(O)O [DRP, D-2-deoxyribose-5-phosphate] | neither of these supplementation substrates nor their metabolic products are toxic to the cells |  |  |  |  |  |  |  |  |  |  |  |  |  |
| WT: wild-type E. coli 2-deoxyribose-5-phosphate aldolase (DERA, EC 4.1.2.4) |  | S238˜DS239W>WT>R207E>K172E>G205E | 1.9 × 10^−5 | cannot accept the unnatural substrate DR efficiently | 57 ± 7 mM | 0.107 ± 0.005 s⁻¹ | 0.64 ± 0.01 mM | 68 ± 1 s⁻¹ | not a substrate; also recorded: inactive | grow |  |  |  |  |
| B1 |  | S238˜DS239W>WT>R207E>K172E>G205E | 0.13 |  | 39 ± 6 mM | 0.21 ± 0.01 s⁻¹ | 61 ± 11 mM | 0.58 ± 0.05 s⁻¹ | catalyzes a novel sequential aldol reaction; also recorded: accepts 3-azidopropionaldehyde as a new substrate |  | 2.5 fold | substantially decreased | 5 fold |  |
| B2 |  | S238˜DS239W>WT>R207E>K172E>G205E | 0.27 |  | 63 ± 22 mM | 0.022 ± 0.02 s⁻¹ |  |  |  |  |  |  |  | 5 fold |
| B3 |  | S238˜DS239W>WT>R207E>K172E>G205E | 3.1 × 10^−3 | virtually inactive |  |  |  |  |  |  |  | virtually inactive |  |  |
| B4 |  | S238˜DS239W>WT>R207E>K172E>G205E | 2.2 | virtually unchanged | 33 ± 3 mM | 0.064 ± 0.001 s⁻¹ |  |  |  |  |  |  |  |  |
